Laboratory results taken from article PMC8782954, “Interplay between an ATP-binding cassette F protein and the ribosome from Mycobacterium tuberculosis” (Nature Communications, 2022).

B1: ribosomal protein uS7 of the Mtb 30S subunit (natural protein)
chain: MPRKGPAPKRPLVNDPVYGSQLVTQLVNKVLLKGKKSLAERIVYGALEQARDKTGTDPVITLKRALDNVKPALEVRSRRVGGATYQVPVEVRPDRSTTLALRWLVGYSRQRREKTMIERLANEILDASNGLGASVKRREDTHKMAEANRAFAHYRW
B2: MtbEttA (energy-dependent translational throttle A from Mycobacterium tuberculosis, Rv2477c) (natural protein)
chain: SMAEFIYTMKKVRKAHGDKVILDDVTLSFYPGAKIGVVGPNGAGKSSVLRIMAGLDKPNNGDAFLATGATVGILQQEPPLNEDKTVRGNVEEGMGDIKIKLDRFNEVAELMATDYTDELMEEMGRLQEELDHADAWDLDAQLEQAMDALRCPPADEPVTNLSGGERRRVALCKLLLSKPDLLLLDEPTNHLDAESVQWLEQHLASYPGAILAVTHDRYFLDNVAEWILELDRGRAYPYEGNYSTYLEKKAERLAVQGRKDAKLQKRLTEELAWVRSGAKARQAKSKARLQRYEEMAAEAEKTRKLDFEEIQIPVGPRLGNVVVEVDHLDKGYDGRALIKDLSFSLPRNGIVGVIGPNGVGKTTLFKTIVGLETPDSGSVKVGETVKLSYVDQARAGIDPRKTVWEVVSDGLDYIQVGQTEVPSRAYVSAFGFKGPDQQKPAGVLSGGERNRLNLALTLKQGGNLILLDEPTNDLDVETLGSLENALLNFPGCAVVISHDRWFLDRTCTHILAWEGDDDNEAKWFWFEGNFGAYEENKVERLGVDAARPHRVTHRKLTRG
notes: also called Mtb Rv2477c

Key:
[1] = target: B2; assay: cryo-EM structure; conditions: both partners purified
[2] = target: the molecule itself; assay: SEC

Row | Binder | binding result [1] | stoichiometry N [2]
1 | B1 | binds | 
2 | B2 |  | 2
